Measurements reported in US20150322135A1 (Pfizer, published 2015).

Tests used:
Mouse FcRn protein [1] = biological target: T1, Mouse FcRn protein (mouse, UniProt Q61559 22-297); test: SPR pH-switch assay: mouse FcRn immobilised, variant bound at pH 6.0, percent bound in the dissociation phase at neutral pH against pH 6.0
T1 construct: Bought protein; called soluble in the 1-to-1 assay and amine-coupled to the chip in the avidity and pH-switch assays; also called soluble mouse FcRn protein; neonatal Fc receptor
T1 sequence (Q61559 22-297): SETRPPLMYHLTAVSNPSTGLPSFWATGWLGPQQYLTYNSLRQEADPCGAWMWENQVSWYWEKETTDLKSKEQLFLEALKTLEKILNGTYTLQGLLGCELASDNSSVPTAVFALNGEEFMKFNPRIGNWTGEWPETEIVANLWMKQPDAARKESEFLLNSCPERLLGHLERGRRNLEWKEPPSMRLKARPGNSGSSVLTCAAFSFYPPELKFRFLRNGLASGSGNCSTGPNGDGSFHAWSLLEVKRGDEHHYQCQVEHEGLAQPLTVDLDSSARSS
Experimental: (§1) The FcRn binding assays were carried out using a surface plasmon resonance (SPR) biosensor, Biacore 3000 (Biacore, Uppsala, Sweden). The sensor chip CM5, surfactant P20, N-ethyl-N-(3-dimethylaminopropyl)carbodiimide (EDC), N-hydroxysuccinimide (NHS), and 1 M ethanolamine (pH 8.5) were purchased from GE Healthcare (Piscataway, N.J.). The SPR experiments were conducted at 25° C. in PBS buffer (pH 6.0) with 0.005% P20. A Mouse FcRn protein was purchased from ARVYS Proteins, Inc. (Stamford, Conn.). All the experiments were repeated three times.
pH-Switch Assay: In order to evaluate the efficiency of dissociation of Fab-monoFc variants from FcRn at neutral pH, the “pH-switch assay” modified from the method that was previously reported was employed. See, e.g., Wang et al., Drug Metab. Dispos. 39, 1469-1477 (2011). In this assay, mouse FcRn protein was immobilized on a CM5 sensor chip by the amine coupling method. The binding was measured by injecting 100 uM of Fab-monoFc variants in running buffer (PBS, pH 6.0) followed by injection of either running buffer (PBS, pH 6.0) or neutral buffer (PBS, pH 7.2) alone over the FcRn surface at flow rate of 50 μL/min.

Mouse FcRn protein [2] = biological target: T1, Mouse FcRn protein; test: SPR 1-to-1 format: variant amine-coupled to CM5 chip, soluble mouse FcRn injected, pH 6.0, steady state
Experimental: as §1
1-to-1 binding Assay—Immobilization of engineered N-glycosylated Fc variants or Fab-mono engineered N-glycosylated Fc variants on a CM5 sensor chip was conducted by the amine coupling method. Briefly, 20 μM protein solution was diluted 20 times in 10 mM acetate (pH 4.5) and injected onto a biosensor surface which had been pre-activated with a 20 uL injection of 1:1 mixture of 200 mM EDC and 50 mM NHS, followed by the injection of 1 M ethanolamine-HCl (pH 8.5). For reference surface, one flow cell was activated by the EDC-NHS mixture and deactivated by ethanol amine without protein. The equilibrium binding was measured by injecting 150 uL of soluble mouse FcRn protein at flow rate of 5 uL/min. The sensor surfaces were regenerated by running PBS buffer (pH 7.2) for 1 min. We observed that all the binding curves of each concentration reached the plateau at the end of injection (30 min).

Mouse FcRn protein [3] = biological target: T1, Mouse FcRn protein; test: SPR avidity format: mouse FcRn immobilised on CM5 chip, variant injected, pH 6.0, steady state
Experimental: as §1
(§2) Avidity Assay: —In order to assess the avidity of analyte (molecule in mobile phase), the SPR-based “avidity assay format” was performed as previously described. See, e.g., Zalevsky et al., Nature Biotech. 28, 157-159; Yeung et al., J. Immunol. 182, 7663-7671 (2009); and Suzuki et al., J. Immunol. 184, 1968-1976 (2010). That is, mouse FcRn protein was immobilized on a CM5 sensor chip by the amine coupling method as described above. The equilibrium binding was measured by injecting 30 μL, of Fab-monoFc variants over the FcRn surface at flow rate of 2 μL/min. The sensor surfaces were regenerated by running 100 mM tris-HCl, pH 8.0 for 1 min.

Mouse FcRn protein [4] = biological target: T1, Mouse FcRn protein; test: SPR avidity format: FcRn localized on the chip surface
Experimental: as §1, §2

| Binder | % bound (Mouse FcRn protein [1]) | Kd (Mouse FcRn protein [2]) | Kd (Mouse FcRn protein [3]) | fold higher affinity than Fab-CH23 (avidity assay) (Mouse FcRn protein [4]) |
| --- | --- | --- | --- | --- |
| Fab-CH23-HEK (Fab-CH23 [N364/N407] produced from HEK293 transient expression system) (Fc fusion, N-linked glycans at Asn297 (natural) and engineered Asn364 and Asn407 (EU numbering), HEK293 glycoform, Same construct as Fab-CH23, made in HEK293 cells instead of CHO cells) heavy: EVQLVESGGGLVQPGGSLRLSCAASGFTFSNYDMYWVRQTTGKGLEWVSAIGTAGDTYYPGSVKGRFTISRENAKNSLYLQMNSLRAGDTAVYYCAREKSSTSAFDYWGQGTLVTVSSASTKGPSVFPLAPSSKSTSGGTAALGCLVKDYFPEPVTVSWNSGALTSGVHTFPAVLQSSGLYSLSSVVTVPSSSLGTQTYICNVNHKPSNTKVDKKVEPKSCDKTHTGGGGSGGGGSGGPSVFLFPPKPKDTLMISRTPEVTCVVVDVSHEDPEVKFNWYVDGVEVHNAKTKPREEQYNSTYRVVSVLTVLHQDWLNGKEYKCKVSNKALPAPIEKTISKAKGQPREPQVYTLPPSREEMTKNQVNLTCLVKGFYPSDIAVEWESNGQPENNYKTTPPVLDSDGSFFLNSTLTVDKSRWQQGNVFSCSVMHEALHNHYTQKSLSLSPGK light: not shown | 1.1% | 230 nM | 180 nM |  |
| Fab-CH23 (Fab-CH23-N364/N407), Fab of an anti-KLH antibody fused to CH23 (Fc fusion, N-linked glycans at Asn297 (natural) and engineered Asn364 and Asn407 (EU numbering), also called Fab-monoFc) heavy: EVQLVESGGGLVQPGGSLRLSCAASGFTFSNYDMYWVRQTTGKGLEWVSAIGTAGDTYYPGSVKGRFTISRENAKNSLYLQMNSLRAGDTAVYYCAREKSSTSAFDYWGQGTLVTVSSASTKGPSVFPLAPSSKSTSGGTAALGCLVKDYFPEPVTVSWNSGALTSGVHTFPAVLQSSGLYSLSSVVTVPSSSLGTQTYICNVNHKPSNTKVDKKVEPKSCDKTHTGGGGSGGGGSGGPSVFLFPPKPKDTLMISRTPEVTCVVVDVSHEDPEVKFNWYVDGVEVHNAKTKPREEQYNSTYRVVSVLTVLHQDWLNGKEYKCKVSNKALPAPIEKTISKAKGQPREPQVYTLPPSREEMTKNQVNLTCLVKGFYPSDIAVEWESNGQPENNYKTTPPVLDSDGSFFLNSTLTVDKSRWQQGNVFSCSVMHEALHNHYTQKSLSLSPGK light: not shown | 5.6% | 250 nM | 180 nM |  |
| Fab-CH23[M428L/N434S] (FcRn enhancement variant) (Fc fusion, N-linked glycans at Asn297 (natural) and engineered Asn364 and Asn407 (EU numbering), Made in CHO cells; also called Fab-CH23 [M428L/N434L]) heavy: EVQLVESGGGLVQPGGSLRLSCAASGFTFSNYDMYWVRQTTGKGLEWVSAIGTAGDTYYPGSVKGRFTISRENAKNSLYLQMNSLRAGDTAVYYCAREKSSTSAFDYWGQGTLVTVSSASTKGPSVFPLAPSSKSTSGGTAALGCLVKDYFPEPVTVSWNSGALTSGVHTFPAVLQSSGLYSLSSVVTVPSSSLGTQTYICNVNHKPSNTKVDKKVEPKSCDKTHTGGGGSGGGGSGGPSVFLFPPKPKDTLMISRTPEVTCVVVDVSHEDPEVKFNWYVDGVEVHNAKTKPREEQYNSTYRVVSVLTVLHQDWLNGKEYKCKVSNKALPAPIEKTISKAKGQPREPQVYTLPPSREEMTKNQVNLTCLVKGFYPSDIAVEWESNGQPENNYKTTPPVLDSDGSFFLNSTLTVDKSRWQQGNVFSCSVLHEALHSHYTQKSLSLSPGK light: not shown | 20% | 68 nM | 35 nM |  |
| Fab-CH23-CH23 (tandem CH23 construct comprising two engineered Fc polypeptides) (Fc fusion, N-linked glycans at Asn297 (natural) and engineered Asn364 and Asn407 (EU numbering) in each of the two CH23 units, Made in CHO cells; also called Fab-CH23-4XGS-CH23; tandem CH23-CH23) heavy: EVQLVESGGGLVQPGGSLRLSCAASGFTFSNYDMYWVRQTTGKGLEWVSAIGTAGDTYYPGSVKGRFTISRENAKNSLYLQMNSLRAGDTAVYYCAREKSSTSAFDYWGQGTLVTVSSASTKGPSVFPLAPSSKSTSGGTAALGCLVKDYFPEPVTVSWNSGALTSGVHTFPAVLQSSGLYSLSSVVTVPSSSLGTQTYICNVNHKPSNTKVDKKVEPKSCDKTHTGGGGSGGGGSGGPSVFLFPPKPKDTLMISRTPEVTCVVVDVSHEDPEVKFNWYVDGVEVHNAKTKPREEQYNSTYRVVSVLTVLHQDWLNGKEYKCKVSNKALPAPIEKTISKAKGQPREPQVYTLPPSREEMTKNQVNLTCLVKGFYPSDIAVEWESNGQPENNYKTTPPVLDSDGSFFLNSTLTVDKSRWQQGNVFSCSVMHEALHNHYTQKSLSLSPGGGGSGGGGSGGGGSGGGGSGGPSVFLFPPKPKDTLMISRTPEVTCVVVDVSHEDPEVKFNWYVDGVEVHNAKTKPREEQYNSTYRVVSVLTVLHQDWLNGKEYKCKVSNKALPAPIEKTISKAKGQPREPQVYTLPPSREEMTKNQVNLTCLVKGFYPSDIAVEWESNGQPENNYKTTPPVLDSDGSFFLNSTLTVDKSRWQQGNVFSCSVMHEALHNHYTQKSLSLSPGK light: not shown | 14% | 250 nM | 4.5 nM | ~40 fold |
